This note sets out measurements from patent US20230331862A1 (SHANGHAI GENBASE BIOTECHNOLOGY, published 2023).

Test [1] concerns the target T1, CEACAM5 (CD66e) on tumour cells (human, UniProt P06731 35-685, glycosylated (natural, as on tumour cells)).
T1 construct: whole, on cells; One molecule for CEACAM5 on all three cell lines; the cell line is named under assay; also called natural CEACAM5 antigen; Lovo cells
T1 sequence (looked up): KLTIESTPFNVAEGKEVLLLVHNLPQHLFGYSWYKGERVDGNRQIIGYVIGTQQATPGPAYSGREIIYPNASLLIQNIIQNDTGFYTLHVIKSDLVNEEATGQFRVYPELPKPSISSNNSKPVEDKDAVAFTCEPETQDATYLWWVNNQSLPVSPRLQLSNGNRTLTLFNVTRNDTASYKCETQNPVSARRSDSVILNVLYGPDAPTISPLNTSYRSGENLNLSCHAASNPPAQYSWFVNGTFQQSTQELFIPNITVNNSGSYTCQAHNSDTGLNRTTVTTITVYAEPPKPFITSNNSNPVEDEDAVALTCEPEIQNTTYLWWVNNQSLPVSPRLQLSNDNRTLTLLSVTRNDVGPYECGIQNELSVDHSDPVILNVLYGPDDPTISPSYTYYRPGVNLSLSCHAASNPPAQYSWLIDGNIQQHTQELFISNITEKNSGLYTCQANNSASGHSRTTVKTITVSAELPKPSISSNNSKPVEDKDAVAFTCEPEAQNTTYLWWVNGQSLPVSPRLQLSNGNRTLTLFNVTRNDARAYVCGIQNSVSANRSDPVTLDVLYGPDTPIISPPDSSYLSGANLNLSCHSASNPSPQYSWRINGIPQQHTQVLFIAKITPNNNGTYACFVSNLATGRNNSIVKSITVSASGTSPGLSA
In words: flow cytometry on Lovo monoclonal clone 4-1, fluorescent secondary antibody. Here is the method:
(§1) After labeling, anti-mouse Fc-PE fluorescence-labeled secondary antibody was added, sorted into 96-well plate by BD FACS Aria, after monoclonal culture was carried out, MN14 was used to detect the expression of monoclonal CEACAM5, and the results were as follows: […]
Background: A flow cytometer gives signals particle by particle.

In test [2] the target is T1, CEACAM5 (CD66e) on tumour cells. The experiment in a line: flow cytometry on Lovo monoclonal clone 3-2, fluorescent secondary antibody. Here is the method: as §1
For test [3] the target is unchanged. In words: flow cytometry on Lovo monoclonal clone 5-2, fluorescent secondary antibody. Here is the method:
as §1

For test [4] the target is unchanged. In words: flow cytometry on Lovo monoclonal clone 8-2, fluorescent secondary antibody. Here is the method:
as §1

The target is the same in test [5]. The experiment in a line: flow cytometry on Lovo monoclonal clone 1-1, fluorescent secondary antibody. On the procedure:
as §1

The target is the same in test [6]. The experiment in a line: flow cytometry on Lovo monoclonal clone 8-1, fluorescent secondary antibody. On the procedure:
as §1

The target is the same in test [7]. The experiment in a line: flow cytometry on Lovo monoclonal clone 1-2, fluorescent secondary antibody. On the procedure:
as §1

The target is the same in test [8]. In words: flow cytometry on Lovo monoclonal clone 7-2, fluorescent secondary antibody. Here is the method: as §1
Test [9] shares this target. In words: flow cytometry on Lovo monoclonal clone 6-1, fluorescent secondary antibody. On the procedure: as §1
Test [10] has the same target. The experiment in a line: flow cytometry on Lovo monoclonal clone 7-1, fluorescent secondary antibody. Here is the method:
as §1

For test [11] the target is unchanged. The experiment in a line: flow cytometry on Lovo monoclonal clone 6-2, fluorescent secondary antibody. Here is the method: as §1
For test [12] the target is unchanged. In words: flow cytometry on Lovo monoclonal clone 3-1, fluorescent secondary antibody. Here is the method:
as §1

The target is the same in test [13]. In words: flow cytometry on Lovo monoclonal clone 5-1, fluorescent secondary antibody. Here is the method:
as §1

Test [14] shares this target. The experiment in a line: flow cytometry on Lovo monoclonal clone 2-1, fluorescent secondary antibody. Here is the method:
as §1

Test [15] shares this target. In words: flow cytometry on Lovo monoclonal clone 2-2, fluorescent secondary antibody. On the procedure: as §1
Test [16] has the same target. The experiment in a line: flow cytometry on Lovo monoclonal clone 4-2, fluorescent secondary antibody. On the procedure:
as §1

The target is the same in test [17]. The experiment in a line: flow cytometry on KATO3 cells, anti-human IgG Fc-APC. Here is the method:
(§2) After the cells were digested with TrypLE, they were centrifuged and resuspended in DPBS solution containing 2% BSA (FACS buffer solution, 4° C.), and added into a U-bottom 96-well plate, 5×10⁵/100 μl/well, and antibody diluted in concentration gradient was added, incubated at 4° C. for 1 hour, the supernatant was discarded after centrifugation; 100 μl of solution containing anti-human IgG Fc-APC secondary antibody was added and incubated at 4° C. for 1 hour, washing was performed once with FACS buffer, resuspending was performed in 200 μl FACS buffer, and the fluorescence signal value was read on BD Cantoll.

For test [18], the target named is T2, recombinant CEACAM5 antigen (Sinobiological, 11077-H08H) (UniProt P06731 35-685).
T2 construct: Bought protein; also called CEACAM5-His recombinant protein; CEACAM5-His antigen; not shown: His tag
T2 sequence (looked up): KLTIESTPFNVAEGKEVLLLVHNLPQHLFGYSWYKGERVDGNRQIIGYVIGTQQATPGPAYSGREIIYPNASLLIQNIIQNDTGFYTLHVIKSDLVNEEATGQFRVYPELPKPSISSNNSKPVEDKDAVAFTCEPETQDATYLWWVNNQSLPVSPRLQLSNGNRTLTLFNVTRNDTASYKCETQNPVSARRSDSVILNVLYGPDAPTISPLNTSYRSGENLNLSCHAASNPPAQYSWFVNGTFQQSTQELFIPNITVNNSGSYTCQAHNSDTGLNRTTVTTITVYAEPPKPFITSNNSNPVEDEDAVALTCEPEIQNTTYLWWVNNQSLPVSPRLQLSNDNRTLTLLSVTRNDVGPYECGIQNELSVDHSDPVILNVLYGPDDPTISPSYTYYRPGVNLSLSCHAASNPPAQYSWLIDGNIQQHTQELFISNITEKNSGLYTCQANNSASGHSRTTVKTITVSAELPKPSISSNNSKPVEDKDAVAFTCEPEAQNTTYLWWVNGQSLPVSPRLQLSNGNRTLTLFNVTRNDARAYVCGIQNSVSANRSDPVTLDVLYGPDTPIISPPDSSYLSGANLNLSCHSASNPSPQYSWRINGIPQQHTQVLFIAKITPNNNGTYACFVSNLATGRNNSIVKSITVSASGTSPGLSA
In words: ELISA, coated recombinant CEACAM5-His 1 µg/ml, anti-human IgG Fc-HRP. On the procedure: The recombinant CEACAM5 antigen (Sinobiological, 11077-H08H) was diluted to 1 μg/ml with DPBS solution, added to a 96-well plate, 100 μl per well, and coated overnight at 2-8° C.; the coating solution was discarded, washing was performed twice with PBS solution, PBS solution containing 2% BSA was added, and blocked at room temperature for 2 hours; the blocking solution was discarded, the antibody diluted in concentration gradient was added, and incubated at 37° C. for 1 hour; the antibody solution was discarded, and washing was performed for 4 times with PBS solution containing 0.05% Tween 20 (PBST solution); anti-human IgG Fc-HRP secondary antibody was added and incubated at 37° C. for 30 minutes; washing was performed for 4 times with PBST solution, TMB chromogenic substrate was added, color development was performed for 5-10 minutes, and the reaction was terminated with equal volume of 1M H₂SO₄; the absorbance at 450 nm was read on a microplate reader.

The target of test [19] is T1, CEACAM5 (CD66e) on tumour cells. In words: flow cytometry on LS174T cells, anti-human IgG Fc-APC. On the procedure: as §2

B1: anti-CEACAM5 antibody hMN14 (antibody, human IgG1, kappa, V domains shown)
VH: EVQLVESGGGVVQPGRSLRLSCSASGFDFTTYWMSWVRQAPGKGLEWIGEIHPDSSTINYAPSLKDRFTISRDNAKNTLFLQMDSLRPEDTGVYFCASLYFGFPWFAYWGQGTPVTVSS
VL: DIQLTQSPSSLSASVGDRVTITCKASQDVGTSVAWYQQKPGKAPKLLIYWTSTRHTGVPSRFSGSGSGTDFTFTISSLQPEDIATYYCQQYSLYRSFGQGTKVEIKR
notes: T0002 prints whole heavy and light chains under the labels 'hMN14 VH' and 'hMN14 VL'
B1: the “CEACAM5 positive ratio, %” value in test [1] amounted to 93.7%; in test [2], 95.9%; in test [3], 96.9%; in test [4] it was 96.8%; in test [5], 90.5%; in [6] it was 97.9%. The “CEACAM5 positive ratio, %” value in test [7] came out at 95.6%; in [8], 96.9%; in test [9], 98.6%; in [10], 93.9%; in [11] it was 88.1%; in [12] it was 97.8%. Also, the “CEACAM5 positive ratio, %” value in test [13] is 76.6%; in [14], 95.6%; in test [15], 96.4%; in test [16], 82.7%.

B2: M7 (11B6) chimeric recombinant antibody (antibody, V domains shown)
VH: EVQLQQSGAELVRPGASVKLSCTVSGFNIKDDYMHWVKQRPEQGLEWIGWIDPENGDTEYASKFQGKATITADTSSNSAYLQLSSLTSEDTAVYYCTFIYYVNPHYYAMDYWGQGTSVTVSS
VL: QIVLTQSPAIMSASPGEKVTITCSATSSVSYMHWFQQKPGTSPKLWIYSTSNLASGVPARFSGSGSGTSYSLTISRVEAEDAATYYCQQRSSYPLTFGAGTKLELK
Usually EC50 stands for the concentration needed to bring the measured effect to its halfway point. On to B2, for which the EC50 in test [17] turned out to be 2.6 µg/mL; in test [18] it was 0.008 µg/mL; in [19], 1.9 µg/mL.

B3: M17 (6A8) chimeric recombinant antibody (antibody, V domains shown)
VH: EVQLQQSGAELVRPGASVKLSCTASGFNIKDDYMHWVKQRPEQGLEWIGWIDPENGDTEYASKFQGKATITADTSSNTAYLLLSSLTSEDTAVYYCTTIYYYGSRGAMDYWGQGTSVTVSS
VL: QIVLTQSPAIMSASPGEKVTITCSASSSVSYMHWFQQKPGTSPKLWIYTTSTLASGVPARFSGSGSGTSYFLTISRMEAEDAATYYCHQRSSYPLTFGAGTKLELK
As for B3, the EC50 in [17] came to 2.7 µg/mL; in test [18] it was 0.013 µg/mL; in test [19], 1.5 µg/mL.

B4: M18 (7G1) chimeric recombinant antibody (antibody, V domains shown)
VH: QIQLVQSGPELKKPGETVKISCKASGYTFTTYGMTWVKQAPGKGLKWMGWINTYSGVPTYIDDFKGRFAFSLETSASTAYLQINNLKNEDTATYFCGRKDLLGFMDYWGQGTSVTVSS
VL: DIQMTQSPSSLSASLGGKVTITCKTSQDINKFMAWYQHKPGKGPRLLIRYTSTLQPGIPSRFSGSGSGRDYSFSIRNLEPEDIATYYCLQYDDLTWTFGGGTKLEI
Regarding B4, the EC50 in test [17] amounted to 13.9 µg/mL; in test [18], 0.016 µg/mL; in test [19], 11.9 µg/mL.
